Consider 1 molecule from patent US20070265350A1 (UNIVERSITY OF IOWA RESEARCH FOUNDATION, published 2007).

This assay has as its target T1, His-Cdc42 (UniProt P60953 1-191, limits assumed).
T1 construct: Bought protein; also called His-tagged Cdc42; Cdc42-GTPγS; not shown: His tag
Briefly: in vitro pull-down of immobilized His-Cdc42 (nucleotide analogs as indicated) with purified bovine SOD1, Western blot (FIG. 1B). On the procedure: Pull-down assays with GST- and His-tagged proteins. Dynabeads talon for histidine tagged proteins were washed with potassium phosphate buffer (PPHB) containing 100 mM KH₂PO₄, 10 mM NaCl, 0.25 mM MgCl₂ and 100 nM CaCl₂. […] The GTPases were either used directly or preloaded with either GTPγS or GDPβS and then washed. […] Samples were incubated at room temperature (RT) for 30 minutes with intermittent gentle agitation. […] The fourth wash was carried out in 50 mM Tris pH 6.8. Proteins were eluted using 20 μl 125 mM imidazole and samples were then mixed with SDS-PAGE reducing loading buffer and separated by SDS-PAGE for Western blotting.
(Immunoblotting shows a protein as a band on a membrane.)

T1 sequence (P60953 whole entry): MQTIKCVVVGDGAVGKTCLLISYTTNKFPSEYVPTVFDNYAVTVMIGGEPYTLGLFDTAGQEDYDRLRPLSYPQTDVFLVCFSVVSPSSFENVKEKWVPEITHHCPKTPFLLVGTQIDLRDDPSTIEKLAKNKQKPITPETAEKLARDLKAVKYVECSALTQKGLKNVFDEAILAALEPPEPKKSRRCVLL

B1: Bovine copper/zinc superoxide dismutase (SOD1), native (enzyme)
chain: not shown
notes: Native, metalated enzyme as bought; also called bovine SOD1; Bov.SOD1
Regarding B1, the binding result is “no binding”.
